# According to the RNAGym collection of RNA variant scans (doi:10.1073/pnas.2313332121):
# B1: TPR t1 (parent)
# chain: GACCAAUCUGCCCUCAGAGCUCGAGAACAUCUUCGGAUGCAGAGGAGGCAGGCUUCGGUGGCGCGAUAGCGCCAACGUCCUCAACCUCCAAUGCAUCCCACCACAUGAUGAUGCCUGAAGAGCCUUGGUUUUUUG
# Variants of: B1
# Assay: polymerase ribozyme fitness, log enrichment relative to wild type (log ratio); higher = more active; in vitro selection for triplet polymerase activity
# Method in brief: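 Frozen incubation at −7 °C formed the core of a single, triplicate in vitro selection round applied to PCR-built, transcribed mutant libraries of each subunit of a heterodimeric triplet polymerase ribozyme. Extended constructs were gel-excised, captured with streptavidin beads and amplified by RT-PCR, and input and output libraries were Illumina-sequenced with a filter of ≥10 input reads and ≥1 read per output. Fitness is the logarithm of genotype enrichment relative to wild-type enrichment, with inverse-variance-weighted replicate averaging, and the logarithm is base 2.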
row,Variant,polymerase ribozyme fitness (log ratio)
1,C12U A27C C49A,-2.06
2,C12U A50C C64U A66G U81C,-4.8
3,C12A G19A C20A C53U C89A,-3.61
4,C12A A84U,-1.96
5,C12G G60A C85G G117A U131A,-1.29
6,C12A C98U G110C U131A,-6.2
7,C12G C34A C56U,-2.05
8,C12G G35A A74U,-4.41
9,C12G G58U A90U A105U,-4.19
10,C12G A18U G39A G52A G60A C82U U106G G120A,-3.95
11,C12G G47C U96A C104A,-4.59
12,C12A G47A C70U C88U U106A,-2.59
13,C12A U81C,-1.73
14,C12U C62U C70G G93A,-5.44
15,C12G C73A C79A C86U,-0.241
16,C12U C22U C28U C124A,-4.02
17,C11U U21C G120U,0.267
18,C12A A46C G60A C82G,-1.19
19,C12U A27G C40U C56U C79A U81A C124U,-2.87
20,C12G C72U A100C,-1.28
21,C12G C28U A66C C72U A84C,-3.81
22,C12G C123G,1.55
23,C11U U78C,-0.264
24,C12A C72U,-0.97

row,Variant,polymerase ribozyme fitness (log ratio)
1,C12A C72G,-0.22
2,C12A G48C U116G,-5.7
3,C12G G52A C88U G120U,1.84
4,C12G C115G,-2.46
5,C12A G19A A46C C73U G117C,-5.99
6,C12G G71C U96A A108G C123G,-4.58
7,C12A C53U A83C U106G G113U,-6.76
8,C12U C49G C97A A111U,-5.43
9,C12U C31G A37G G45U A50C G51U C102A G117U,-7.15
10,C11U U112G G127A,-1.34
11,C12G G17U G57C C62A C115G U129C U132C,-3.27
12,C12A A46U C82U,-1.99
13,C12A G39U A50U U133A,-1.46
14,C12G C15G G45A C49G C85U C124U,-2.82
15,C12G U14G G57A G113U,-7.24
16,C12G C20G C56U C79U C82U A91U G107C G117A,-3.77
17,C12G C89A,-1.41
18,C12G C40A,-1.14
19,C12A U32G C53A C89U C114A,-8.31
20,C12A G25U A27C A37C U38A C70G C82U C115U,-6.08
21,C11U G77U A111G U112C G122A,-0.084
22,C12U C56U G69U U112G A119U,-2.27
23,C11U G45A U78A C86A U106A U125A,-6.24
24,C12G A108G,-1.2

row,Variant,polymerase ribozyme fitness (log ratio)
1,C12A C97A,-4.79
2,C11U G42U G48C C88U G135C,-1.51
3,C12U C13U C79G,-1.13
4,C12A G63A C89G C114A,-6.47
5,C12A C62U,-0.927
6,C12G C85G,-1.08
7,C12G C80U,0.429
8,C12G A16G C53A C80U,-5.01
9,C12U A27G G42A A90G G93U A95G,-2.39
10,C12G G45A U78C A84C U106G,-2.62
11,C12A C22G,-2.6
12,C12U A18C,-1.45
13,C12A G47C C56A C70U A83U C85U G120C,-4.03
14,C12G A41G C72U C102U,-2.31
15,C12A A83U,-0.825
16,C12G C73A C88U G122A,-1.14
17,C11U G42A C85G,-3.59
18,C12U A50U C73U U125A,-0.873
19,C12G C13A C72G C124U,-0.0514
20,C11U G42A C73U C104A U109A U125G,-7.2
21,C12A C13G G35A,-5.31
22,C12G U14C U59G,-1.18
23,C12A A37C A46C C88U,-2.57
24,C12U C53G A90C,-1.61

row,Variant,polymerase ribozyme fitness (log ratio)
1,C12A C89U,-1.16
2,C12A C49A C88A G110U,-1.74
3,C12G C28U C53A,-2.29
4,C12A C49A C70A C97A G120U U130G,-5.85
5,C11U G61A U112C,1.14
6,C12G U14A U38G C76U C85G,-3.19
7,C11U G71U G93A C104U,-1.26
8,C12G U14C G17U C22G C49G G117C U130A,-6.43
9,C12G C73A A74G C89A A111G G127U,-5.44
10,C12A G51A A91G A119G G120A,-2.39
11,C11U G48U U59C A84G C101A,-2.88
12,C12A G44C C64U U125G,-2.52
13,C12U C40U G69C A91U C101U A121C,-2.89
14,C12A G58A,-0.259
15,C12A C56A C70U C102A C104U,-2.58
16,C12A A24U U32A C99A U116C U130G,-7.85
17,C11U G17A U106A,-3.29
18,C12U C15U G45U G69C C82A C101U,-2.95
19,C11U C104U U126G,-2.39
20,C12A C13A U59G G127A,-3.41
21,C11U U14A A84G,-4.24
22,C12G C31U G61A,-5.13
23,C12U C72G,0.149
24,C12A G35U C40U G45A C53G G63C G117C G127U,-6.85

row,Variant,polymerase ribozyme fitness (log ratio)
1,C12A C99U C123U U129G,-3.57
2,C12A C64U C115U G120A C123A,-1.16
3,C12U C15U G17A C64U A83C C85A G117U,-2.73
4,C12A C62A G77A,-3.27
5,C12G C13A A50C A119U G127A,-1.75
6,C12U C13U C40G C76A G77A U131C,-0.917
7,C12A C99G G110U,-6.29
8,C11U G44A G52A A118C C123G,-1.81
9,C12A G19C A91U U126G,-5.51
10,C12G U112A U133G,1.61
11,C12A C97A U131A,-4.52
12,C12G A29U C62G,-2.88
13,C12U C22G G45A G71A C94U C99U,-4.76
14,C12A G23A C82G,-7.42
15,C12U A50G A74U U78C G93A,-1.93
16,C12G G120C A121G,-1.12
17,C12A A41U G77C A83G C85A U125A,-4.14
18,C12A A24G A41U G71C C88U A90G C123G,-4.92
19,C12A C72U C98A,-6.65
20,C12U A27G C88A C123G U126A,-1.75
21,C12G C62U,0.0184
22,C12A A41G G63A,-2.29
23,C12G G42U C49A G113C U132A,-2.5
24,C12A C28U,-1.82

row,Variant,polymerase ribozyme fitness (log ratio)
1,C12G A16U G48A C82A,-3.19
2,C12G G69U U81G A90U G127U,-4.07
3,C11U G42C G44U C62U,-2.34
4,C12A C49A G63U A121U U132C G135A,1.42
5,C11U G45A,-0.828
6,C12A A74G C123A U131A,2.13
7,C12A A26G G57A U78A C124G,-1.04
8,C11U U32A A46C G48A C72G U112G,-5.51
9,C12G A27G C64U C104U,-2.48
10,C12A U78C,-0.581
11,C12U C70U C80A C97U A121G U133A,-3.61
12,C12G C31U C49U G51U C70U C101A U109G,-6.92
13,C12A C40U C56A U96A G117A,-5.83
14,C12A C20A C64A C88U U116C,-6.74
15,C12U A29G G71U G128A,-3.03
16,C11U G117C A119U,-3.48
17,C12A U14G G71U,-2.39
18,C11U G61A C94G,-0.792
19,C12A A37U A68G C114G,-6.56
20,C12A C34A G45A G71C,-6.58
21,C12U C64U,0.0316
22,C12U C64A,-5.62
23,C12U C72A C80U,-0.362
24,C12G C94U G110C G127C,-4.48

row,Variant,polymerase ribozyme fitness (log ratio)
1,C12G C70A C82U A105U U106A U109G,-4.43
2,C11U U32A C34U G69U C88A,-4.62
3,C12G A29U C49G C82U C115U U133A,-2.06
4,C12U A91U,-1.85
5,C12G C49G U54A,-0.423
6,C11U U55G,-2.15
7,C12A C20A G61A C88U U116C,-4.6
8,C12G U59G G60U A95U G110C,-5.19
9,C12A G48U C53A C101U G113C G120A,-3.38
10,C11U U21G G42A U96G,-4.94
11,C12A A105G C124U,-0.99
12,C11U U92A,-2.13
13,C12G C62U A68C U116C A121C U129A,-6.48
14,C12A G60A G110U G122A U132A,-3.16
15,C12U A16U G63C A105C C124G,-2.25
16,C12A G39U,-1.1
17,C12A G57A,-1.19
18,C12U C70U G71A,-0.916
19,C12G U55A U87A,0.0839
20,C12U C13U A50U U78G U131C,-0.743
21,C12U A43U,-1.51
22,C11U G57A G63A C101G,-3.69
23,C12A G69U G107C G117C,-6.81
